Assay results reported in patent publication US20250325622A1, “Autoimmune Disease Modulation Protocol” (priority 2024, published 2025).

Tested on: lupus anticoagulants
Assay: PTT-LA Screen, lupus patient case study
Format: in vivo, human
Conditions: coinciding with the first IV infusion, before the protocol; reference range <=40 sec
Experimental: On Jan. 5, 2023, the invention was administered to a person who was previously diagnosed in July 2019 with the autoimmune disease Lupus. This diagnosis was validated through a complete ANA Screen blood test panel conducted in July and subsequently in August of 2019 for a second confirmation. The patient was on standard therapies and medications typically prescribed for Lupus until December 2022, during which their symptoms progressively deteriorated. Of note, the patient voluntarily ceased all standard treatments for Lupus and other related auto-immune diseases one month prior to commencing the invention, under the supervision of their treating rheumatologist of the Arthritis & Rheumatic Disease Specialties center.
PTT-LA Screen: Tests for the presence of lupus anticoagulants, which are antibodies that can interfere with blood clotting and are commonly found in lupus patients.

## Inflectra: intravenous (IV) infusion treatment, a monoclonal antibody used to treat a range of inflammatory autoimmune diseases
  PTT-LA levels: significant spike
